The target in assay [1] is T1, SNAP-Syk tSH2 (mouse, UniProt P48025 1-262). Nature of the assay: liposome-based fluorescence quenching assay: SNAP-505-labelled Syk tSH2 reporter, rhodamine-PE liposomes carrying His10-receptor tail (0 to 500 nM) phosphorylated by His10-Lck Y505F after ATP; Kd ± SE from a one-site specific binding fit. The method, then:
(§1) Experiments were carried out as previously described (Alvey C M et al., Current Biology 27:2065-2077, 2017). Briefly, proteins were purified using a bacterial expression system. All protein components (1 mg/ml BSA, 100 nM tSH2-Syk SNAP-505, 0 to 500 nM His10-CD3ζ or His10-FcRγ intracellular chain, and 7.2 nM His10-Lck Y505F) were mixed into kinase buffer (50 mM HEPES-NaOH pH 6.8, 150 mM NaCl, 10 mM MgCl₂, and 1 mM TCEP). Liposomes prepared at the following molar ratios: 74.5% POPC (Avanti, Catalog #850457C), 10% DOGS-NTA (Nickel) (Avanti, Catalog #790404C, 0.5% Rhodamine PE (Avanti, Catalog #810150C), and 15% DOPS (Avanti, Catalog #840035C) were added and the mixture was incubated for 40-60 minutes at room temperature, during which the SNAP-505 fluorescence was monitored at 8 s intervals with 504 nm excitation and 540 nm emission. 1 mM ATP was then injected to trigger Lck mediated phosphorylation of CD3ζ or FcRγ. Injection was followed by 5 seconds of automatic shaking of the plate, and the fluorescence was further monitored at 8 s intervals for at least 1 hr. Data were normalized by setting the average fluorescence value of the last 10 data points before ATP addition as 100% and background fluorescence as 0%. […]

Assay [2] deals with T1, SNAP-Syk tSH2. Nature of the assay: liposome-based fluorescence quenching (FRET) assay; His10-FcRγ on NiNTA liposomes phosphorylated by Lck, 100 nM SNAP-505 Syk tSH2, receptor titrated 0-500 nM; apparent Kd, one site specific binding fit. The method, then: as §1

Results on 1 molecule are retold here after patent publication US20210277140A1 (University of California, published 2021).

No end group written: not given here.

B1: His10-FcRγ (other, human)
chain: HHHHHHHHHHRLKIQVRKAAITSYEKSDGVYTGLSTRNQETYETLKHEKPP
modifications: not fully specified
notes: range 45-85; titrated 0 to 500 nM; also called His10-FcRγ intracellular chain; His10-FcRγ-chain
B1: the Kd was 31.2 nM with SNAP-Syk tSH2 [1] and about 30 nM with SNAP-Syk tSH2 [2].
